Experimental data reported in publication PMC6307885, “Spatiotemporal control of axillary meristem formation by interacting transcriptional regulators” (Development (Cambridge, England), 2018).

Columns and labels:
[1] = biological target: T1, BD-REV (full-length REV fused to the binding domain of GAL4) (Arabidopsis thaliana, UniProt Q9SE43 1-842); assay: cell-based or functional assay
T1 sequence (looked up): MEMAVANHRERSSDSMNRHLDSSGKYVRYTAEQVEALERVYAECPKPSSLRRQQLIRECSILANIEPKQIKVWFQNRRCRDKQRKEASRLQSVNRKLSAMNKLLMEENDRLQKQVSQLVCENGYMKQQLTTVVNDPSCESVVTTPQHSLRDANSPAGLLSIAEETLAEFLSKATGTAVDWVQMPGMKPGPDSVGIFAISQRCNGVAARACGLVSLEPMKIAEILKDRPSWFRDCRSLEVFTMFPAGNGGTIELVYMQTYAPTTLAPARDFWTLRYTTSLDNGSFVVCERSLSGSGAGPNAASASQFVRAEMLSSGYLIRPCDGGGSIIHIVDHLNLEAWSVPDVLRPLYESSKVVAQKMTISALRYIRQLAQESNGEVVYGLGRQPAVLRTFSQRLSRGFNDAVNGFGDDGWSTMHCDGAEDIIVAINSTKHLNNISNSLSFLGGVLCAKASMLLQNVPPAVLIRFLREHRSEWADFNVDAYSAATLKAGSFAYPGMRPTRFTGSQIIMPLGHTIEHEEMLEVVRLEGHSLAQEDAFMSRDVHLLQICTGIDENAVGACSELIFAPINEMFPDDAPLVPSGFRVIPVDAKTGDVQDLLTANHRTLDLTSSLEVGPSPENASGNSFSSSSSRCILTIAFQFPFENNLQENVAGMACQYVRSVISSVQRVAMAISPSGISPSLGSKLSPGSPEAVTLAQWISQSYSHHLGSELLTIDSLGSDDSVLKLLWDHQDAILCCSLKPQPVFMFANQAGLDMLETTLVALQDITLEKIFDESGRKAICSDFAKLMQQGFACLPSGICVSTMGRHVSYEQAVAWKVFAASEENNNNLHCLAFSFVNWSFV

[2] = biological target: T2, DRN-GFP (DORNRÖSCHEN fused to GFP, from pDRN::DRN-GFP plants) (Arabidopsis thaliana, UniProt Q9SAD4 1-328); assay: co-IP; anti-GFP on Protein A sepharose beads, blot probed with anti-MYC; extracts of young (younger than P10) and mature (older than P10) leaf axil-enriched tissues of pDRN::DRN-GFP p35S::REV-MYC plants, equal amounts of DRN-GFP; 20 mM HEPES pH 7.5, 40 mM KCl, 1 mM EDTA, 1% Triton X-100; settings: partners not purified
T2 construct: DORNRÖSCHEN (DRN/ESR1), AP2 family transcription factor, Arabidopsis thaliana, At1g12980; Cole et al., 2009; also called ESR1; ENHANCER OF SHOOT …ON 1; source: Arabidopsis pDRN::DRN-GFP p35S::REV-MYC plants, extract of leaf axil-enriched shoot tissues
T2 sequence (Q9SAD4 whole entry, the tested form may be a part): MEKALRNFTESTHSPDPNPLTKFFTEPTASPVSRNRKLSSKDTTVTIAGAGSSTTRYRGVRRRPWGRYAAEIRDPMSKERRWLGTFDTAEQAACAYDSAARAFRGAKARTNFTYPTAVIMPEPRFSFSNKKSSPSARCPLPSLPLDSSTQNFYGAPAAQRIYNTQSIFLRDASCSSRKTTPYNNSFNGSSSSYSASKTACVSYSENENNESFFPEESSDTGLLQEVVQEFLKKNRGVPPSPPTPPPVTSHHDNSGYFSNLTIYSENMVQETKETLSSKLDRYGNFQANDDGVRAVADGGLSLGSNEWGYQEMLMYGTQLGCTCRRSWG

B1: AD-DRNL (full-length DRNL fused to the activation domain of GAL4) (natural protein)
chain: not shown
Question: How did the “pSTM::Luc reporter (LUC/GUS) in Arabidopsis protoplasts; co-transformation of p35S::DRNL and p35S::REV against transformation with one alone” value [1] turn out when B1 was run?
Answer: The value was roughly 2.5 fold.

B2: AD-DRN (full-length DRN fused to the activation domain of GAL4) (natural protein)
chain: not shown
Question: B2 was tested. Which “pSTM::Luc reporter (LUC/GUS) in Arabidopsis protoplasts; co-transformation of p35S::DRN and p35S::REV against transformation with one alone” value [1] did it give?
Answer: The value was roughly 2.5 fold.

B3: REV-MYC (REVOLUTA with MYC tag, from p35S::REV-MYC plants) (natural protein, Arabidopsis thaliana, UniProt Q9SE43 1-842, looked up)
chain: T1 sequence (looked up)
notes: REVOLUTA (REV), class III homeodomain-leucine zipper transcription factor, Arabidopsis thaliana, At5g60690; source: Arabidopsis pDRN::DRN-GFP p35S::REV-MYC plants, extract of leaf axil-enriched shoot tissues
Question: B3 was tested. Which “fold stronger co-precipitated REV-MYC band, old against young leaf axil-enriched tissues” value [2] did it give?
Answer: The value was roughly 3 fold.
